From patent US20240069033A1, “METHOD FOR SCREENING FOR CANDIDATE MOLECULE CAPABLE OF FORMING COMPLEX IN CONJUNCTION WITH PLURALITY OF TARGET MOLECULES” (Chugai Seiyaku Kabushiki Kaisha, priority 2020, published 2024)

Legend:
[1] = test system: anti-ubiquitin antibody fixed bead; test: Complementation assay of splitUbiquitin with Kpep/Epep charged peptides using mRNA display; type: binding; conditions: for Recovered nucleic acid amount (molecules): Display molecules 0.2 μM each (pairs) or 0.4 μM (alone), anti-ubiquitin antibody beads, qPCR; for Recovery rate (%): apparent recovery rate corrected with display efficiency; for Apparent recovery rate (%): recovered/input nucleic acid amount
Protocol: Next, Display molecules composed of constructs (SEQ ID NO: 55 (P-11) to SEQ ID NO: 57 (P-13)) in which splitUb(N) and splitUb(C) each were added with a charged peptide sequence (K-peptide containing an amino acid having a positive charge) (sometimes referred to as “Kpep”) or E-peptide containing an amino acid having a negative charge (“Epep”)) were prepared. When the added peptides are attracted to each other by charges, splitUbs become in proximity to each other and recovered by an anti-ubiquitin antibody. Conversely, when the added peptides are repelled to each other by charges, splitUbs are not recovered. Once this is validated, the complexation of molecules added to splitUbs can be evaluated with the recovery rate through ubiquitin and anti-ubiquitin antibodies.
Reactions were made under the same conditions as in condition 1, except that, in condition 2, the Display molecule of Epep-splitUb(N) and the Display molecule of Epep-splitUb(C) were added at 0.2 μM; in condition 3, the Display molecule of Kpep-splitUb(N) was added at 0.4 μM; in condition 4, the Display molecule of Epep-splitUb(N) was added at 0.4 μM; and in condition 5, the Display molecule of Epep-splitUb(C) was added at 0.4 μM.

[2] = Complementation assay of splitSNAP-tag using mRNA display (reaction with SNAP-Biotin, streptavidin pull-down, qPCR); type: biochemical; conditions: for Recovery rate (%): apparent recovery rate corrected with display efficiency; for Recovered nucleic acid amount (molecules): reaction with SNAP-Biotin 37° C. 30 minutes, streptavidin pull-down, qPCR; for Apparent recovery rate (%): recovered / theoretical value of added nucleic acid amount
Protocol: To this solution, ¼ amount of a PBS solution containing 5 mM DTT, 2500 nM SNAP-Biotin (New England BioLabs, Inc.) was added, and the enzymatic reaction was performed at 37° C. for 30 minutes.

B1: Epep-splitUb (N): mRNA Display molecule of splitUb(N) with negatively charged E-peptide (SEQ ID NO: 56) (conjugate)
chain: MKVSALENEVSALEKEVSVLEKEVSALEKEVRALEKGSGSGSGSMQIFVKTLTGKTATLEVEPSDTIENVKAKIQDKEGIPGSGSGSGSKK
modifications: mRNA display linkage; Epep-splitUb(N)-GS4
For B1, the “Recovered nucleic acid amount (molecules)” value [1] was 3.77E+05 molecules, the “Recovery rate (%)” value [1] was 0.0004% and the “Apparent recovery rate (%)” value [1] was 0.0001%.

B2: Kpep-splitUb (N): mRNA Display molecule of splitUb(N) with positively charged K-peptide (SEQ ID NO: 55) (conjugate)
chain: MKVSALKENVSALKEKVSALTEKVSALKEKVSALKEGSGSGSGSMQIFVKTLTGKTATLEVEPSDTIENVKAKIQDKEGIPGSGSGSGSKK
modifications: mRNA display linkage; Kpep-splitUb(N)-GS4
In the case of B2, the “Recovered nucleic acid amount (molecules)” value [1] is reported as 2.28E+06 molecules, the “Recovery rate (%)” value [1] is reported as 0.0008% and the “Apparent recovery rate (%)” value [1] is reported as 0.0005%.

B3: SNAP(N): mRNA Display molecule of SNAP tag N-terminal fragment with C-terminal GS linker (SEQ ID NO: 42) (conjugate)
chain: MDKDCEMKRTTLDSPLGKLELSGCEQGLHRIIFLGKGTSAADAVEVPAPAAVLGGPEPLMQATAWLNAYFHQPEAIEEFPVPALHHPVFQQGSGSGSGSGSKK
modifications: mRNA display linkage; splitSNAP (N)-GS5
With B3 the “Recovery rate (%)” value [2] was 0.097%, the “Recovered nucleic acid amount (molecules)” value [2] was 6.26E+07 molecules and the “Apparent recovery rate (%)” value [2] was 0.062%.

B4: SNAP(full): mRNA Display molecule of full-length SNAP tag with C-terminal GS linker (SEQ ID NO: 44) (conjugate)
chain: MDKDCEMKRTTLDSPLGKLELSGCEQGLHRIIFLGKGTSAADAVEVPAPAAVLGGPEPLMQATAWLNAYFHQPEAIEEFPVPALHHPVFQQESFTRQVLWKLLKVVKFGEVISYSHLAALAGNPAATAAVKTALSGNPVPILIPCHRVVQGDLDVGGYEGGLAVKEWLLAHEGHRLGKPGLGPAGGSAFKLEVNGSGSGSGSGSKK
modifications: mRNA display linkage; SNAP (full)-GS5
With B4 the “Recovery rate (%)” value [2] was 14.364%, the “recovery rate higher than other controls” value ([2]; in the presence of SNAP-Biotin) was “at least 50 times” and the “Recovered nucleic acid amount (molecules)” value [2] was 4.78E+09 molecules. For the same molecule, the “Apparent recovery rate (%)” value [2] was 4.740%.

B5: SNAP(C): mRNA Display molecule of SNAP tag C-terminal fragment with C-terminal GS linker (SEQ ID NO: 43) (conjugate)
chain: MVDESFTRQVLWKLLKVVKFGEVISYSHLAALAGNPAATAAVKTALSGNPVPILIPCHRVVQGDLDVGGYEGGLAVKEWLLAHEGHRLGKPGLGPAGGSAFKLEVNGSGSGSGSGSKK
modifications: mRNA display linkage; SNAP (C)-GS5
In the case of B5, the “Recovery rate (%)” value [2] is reported as 0.035%, the “Recovered nucleic acid amount (molecules)” value [2] is reported as 6.76E+06 molecules and the “Apparent recovery rate (%)” value [2] is reported as 0.007%.
